Test results as given in patent publication US20040259779A1.

How the values were obtained:
[1] = target: combination of receptor ALK7 and receptor ActRIIB; assay: cell-based or functional assay
[2] = target: combination of receptor ALK4 and receptor ActRIIB; assay: cell-based or functional assay

Neuronal Survival and Growth Factor 3 (NSG3) (ligand)
luciferase activity of the Smad3-specific pCAGA-luc reporter in HepG2 cells co-expressing ALK7, ActRIIB and NsG-3 (basal without NsG-3 approx. 9) (arbitrary units) [1]: 33 | luciferase activity of the Smad3-specific pCAGA-luc reporter in HepG2 cells co-expressing ALK4, ActRIIB and NsG-3 (basal without NsG-3 approx. 2) (arbitrary units) [2]: 7
